From US20190112365A1 (EISAI R AND D MANAGEMENT, published 2019) come the findings set out here.

B1: 7G6-HCzu5-LCzu10 (antibody, human IgG1, kappa, V domains shown)
VH: QVQLVQSGAEVKKPGASVKVSCKASGYTFTTYWITWVRQAPGQGLEWMGDIYPGSSISNYNEKFKSRVTMTVDTSTSTAYMELSSLRSEDTAVYYCAREDGYDAWFAYWGQGTLVTVSS
VL: DVVMTQSPLSLPVTLGQPASISCRSSQSIVHSNGNTYLEWFQQRPGQSPRRLIYKVSNRFSGVPDRFSGSGSGTDFTLKISRVEAEDVGVYYCFQGSHVPFTFGQGTKLEIKR
notes: humanized, human IgG1 kappa
B2: 7G6-HCzu5-LCzu22 (antibody, human IgG1, kappa, V domains shown)
VH: B1 VH
VL: B1 VL with V30L, F41Y, Y54S
notes: humanized, human IgG1 kappa; also called 7G6-LCzu22
B3: 7G6-HCzu10-LCzu6 (antibody, human IgG1, kappa, V domains shown)
VH: B1 VH with S58C, N61A, E62Q, K65Q, S66G, V72R, A79V
VL: B1 VL with V30L, F41Y, R51L, Y54S
notes: humanized, human IgG1 kappa
B4: 7G6-HCzu5-LCzu21 (antibody, human IgG1, kappa, V domains shown)
VH: B1 VH
VL: B1 VL with V30L, R51L, Y54S
notes: humanized, human IgG1 kappa
B5: 7G6-HCzu7-LCzu6 (antibody, human IgG1, kappa, V domains shown)
VH: B1 VH with N61A, E62Q, K65Q, S66G, A79V
VL: B1 VL with V30L, F41Y, R51L, Y54S
notes: humanized, human IgG1 kappa
B6: 7G6-HCzu6-LCzu6 (antibody, human IgG1, kappa, V domains shown)
VH: B1 VH with A79V
VL: B1 VL with V30L, F41Y, R51L, Y54S
notes: humanized, human IgG1 kappa
B7: 7G6-HCzu9-LCzu6 (antibody, human IgG1, kappa, V domains shown)
VH: B1 VH with S58C, N61A, E62Q, K65Q, S66G, A79V
VL: B1 VL with V30L, F41Y, R51L, Y54S
notes: humanized, human IgG1 kappa
B8: 7G6-HCzu17-LCzu12 (antibody, human IgG1, kappa, V domains shown)
VH: EVQLLESGGGLVQPGGSLRLSCAASGYTFTTYWITWVRQAPGKGLEWVSDIYPGSSICNYNEKFKSRFTISVDNSKNTLYLQMNSLRAEDTAVYYCAREDGYDAWFAYWGQGTLVTVSS
VL: DVQMTQSPSSLSASVGDRVTITCRSSQSILHSNGNTYLEWYQQKPGKAPKLLICKVSNRFSGVPSRFSGSGSGTDFTLTISSLQPEDFATYYCFQGSHVPFTFGQGTKLEIKR
notes: humanized, human IgG1 kappa
B9: 7G6-HCzu19-LCzu12 (antibody, human IgG1, kappa, V domains shown)
VH: B8 VH with N61A, E62D, S66G, V72R
VL: B8 VL
notes: humanized, human IgG1 kappa
B10: 7G6-HCzu18-LCzu12 (antibody, human IgG1, kappa, V domains shown)
VH: B8 VH with V72R
VL: B8 VL
notes: humanized, human IgG1 kappa
B11: 7G6-HCzu12-LCzu15 (antibody, human IgG1, kappa, V domains shown)
VH: B8 VH with S49G, N77S, L79A
VL: B8 VL with C54S
notes: humanized, human IgG1 kappa
B12: 7G6-HCzu11-LCzu11 (antibody, human IgG1, kappa, V domains shown)
VH: B8 VH with V72R, R98K
VL: B8 VL with V2I, C54Y
notes: humanized, human IgG1 kappa
B13: 7G6-HCzu14-LCzu12 (antibody, human IgG1, kappa, V domains shown)
VH: B8 VH with S49G, N61A, E62D, S66G, N77S, L79A
VL: B8 VL
notes: humanized, human IgG1 kappa
B14: 7G6-HCzu15-LCzu12 (antibody, human IgG1, kappa, V domains shown)
VH: B8 VH with S49G, L79A
VL: B8 VL
notes: humanized, human IgG1 kappa
B15: 7G6-HCzu12-LCzu13 (antibody, human IgG1, kappa)
heavy: not shown
light: DVQMTQSPSSLSASVGDRVTITCRSSQSILHSNGNTYLEWYQQKPGKAPKLLIYKVSNRFSGVPSRFSGSGSGTDFTLTISSLQPEDFATYYCFQGSHVPFTFGQGTKLEIKRTVAAPSVFIFPPSDEQLKSGTASVVCLLNNFYPREAKVQWKVDNALQSGNSQESVTEQDSKDSTYSLSSTLTLSKADYEKHKVYACEVTHQGLSSPVTKSFNRGEC
notes: humanized, human IgG1 kappa
B16: 7G6-HCzu16-LCzu12 (antibody, human IgG1, kappa, V domains shown)
VH: B8 VH with L79A
VL: B8 VL
notes: humanized, human IgG1 kappa
B17: 7G6-HCzu12-LCzu16 (antibody, human IgG1, kappa, V domains shown)
VH: B8 VH with S49G, N77S, L79A
VL: B8 VL with L30V, C54S
notes: humanized, human IgG1 kappa
B18: 7G6-HCzu12-LCzu12 (antibody, human IgG1, kappa)
heavy: not shown
light: B15 light with Y54C
notes: humanized, human IgG1 kappa
B19: 7G6-HCzu12-LCzu14 (antibody, human IgG1, kappa)
heavy: not shown
light: B15 light with V2I, Y54C
notes: humanized, human IgG1 kappa
B20: 7G6-HCzu13-LCzu12 (antibody, human IgG1, kappa, V domains shown)
VH: B8 VH with S49G, N61A, E62D, K63S, F64V, S66G, N77S, L79A
VL: B8 VL
notes: humanized, human IgG1 kappa
B21: 7G6-HCzu12-LCzu11 (antibody, human IgG1, kappa)
heavy: not shown
light: B15 light with V2I
notes: humanized, human IgG1 kappa
B22: 7G6-HCzu20-LCzu12 (antibody, human IgG1, kappa, V domains shown)
VH: B8 VH with N61A, E62D, S66G, V72R, R98K
VL: B8 VL
notes: humanized, human IgG1 kappa

Positions count from the first letter of the chain named. Where “and” joins values, the source holds several entries; their conditions need not be identical. Equal values may be shown once.

The target of one test is T1, Human Tau 2N4R, wild type, recombinant full length (human, UniProt P10636 2-758).
T1 construct: Full length 2N4R isoform; monomer in SPR and ELISA; heparin-induced aggregates or seeds in the functional assays; also called Tau441; Tau-441
T1 sequence (P10636 other isoform, or with tags, fused parts or gaps limits assumed): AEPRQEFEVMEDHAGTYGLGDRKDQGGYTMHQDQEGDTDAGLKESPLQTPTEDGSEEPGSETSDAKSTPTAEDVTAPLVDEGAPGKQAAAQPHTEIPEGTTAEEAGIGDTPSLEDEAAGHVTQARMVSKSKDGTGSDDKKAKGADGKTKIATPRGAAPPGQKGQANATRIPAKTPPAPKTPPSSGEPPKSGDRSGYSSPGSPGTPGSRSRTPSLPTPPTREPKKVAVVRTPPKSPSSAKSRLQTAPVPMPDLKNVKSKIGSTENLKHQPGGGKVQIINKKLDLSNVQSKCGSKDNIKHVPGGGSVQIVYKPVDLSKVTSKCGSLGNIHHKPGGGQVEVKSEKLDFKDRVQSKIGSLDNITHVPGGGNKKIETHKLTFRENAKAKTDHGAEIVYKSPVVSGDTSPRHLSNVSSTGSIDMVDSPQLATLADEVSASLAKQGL
In words: SPR BIAcore, mAb captured by anti-human IgG, Tau flowed, 1:1 Langmuir. How it is done:
(§1) All experiments were performed using a BIAcore™ T-100 instrument (GE Healthcare). 10 μL anti-human IgG (monoclonal mouse anti-human Fc) from human antibody capture kit (GE Healthcare) was diluted to 25 μL/mL in 200 μL final immobilization buffer (10 mM sodium acetate, pH 5.0). The flow rate was set to 5 μL/min, flowpath 1. Fifty μL N-hydroxysuccinamide (NETS) and 50 μL 1-ethyl-3-(3-dimethylaminopropyl) carbidiimide (EDC) were mixed and injected for 420 sec to activate the CM5 chip surface. The diluted antibody was injected for 360 seconds followed by 1 M ethanolamine for 420 seconds. The flowpath was then switched to flowpath 2. A new EDC/NHS mixture was prepared and the procedure was repeated for flow cell 2. The surface was conditioned by 2 injections of 30 sec using flowpath 1, 2 at 30 μL/min of 3M MgCl₂. For the anti-mouse surface, 10 μL anti-mouse IgG (polyclonal rabbit anti-mouse IgG) from mouse antibody capture kit (GE Healthcare) was diluted to 30 μL/mL in 324 μL final immobilization buffer (10 mM sodium acetate, pH 5.0). The flow rate was set to 5 μL/min, flowpath 3. Fifty μL NHS and 50 μL EDC were mixed and injected for 420 sec to activate the chip surface. The diluted antibody was injected for 420 sec. 1 M ethanolamine was injected for 420 sec. Flow path was switched to flowpath 4. A new EDC/NHS mixture was prepared and the procedure was repeated for flow cell 4. The surface was conditioned by 2 injections of 30 sec using flowpath 3, 4 at 30 μL/min of 10 mM glycine, pH 1.7.
(§2) Binding of humanized and mouse antibodies were analyzed by surface plasmon resonance (BIAcore™) to determine their relative association rates (kₐ), dissociation rates (kd), and equilibrium binding constants (KD). Anti-mouse or anti-human antibodies were immobilized on a CM5 chip and sample mAbs were captured on the chip. 2N4R Tau was flowed over the chip and binding observed. The binding constants kₐ, kd, and KD were determined using a 1:1 Langmuir fitting model.
On the technique in general: Surface plasmon resonance follows binding to a sensor surface in real time, without labels.
As to B1, the Kd is 0.162 nM, the dissociation rate constant (koff) was found to be 0.00053 s⁻¹ and the kon worked out at 3.27e+06 M⁻¹ s⁻¹.

Regarding B2, the equilibrium dissociation constant (Kd) was determined as 1.48 nM, the koff turned out to be 0.00277 s⁻¹ and the on-rate constant (kon) came to 1.88e+06 M⁻¹ s⁻¹.

For the molecule B3, the equilibrium dissociation constant (Kd) is 0.108 nM, the koff was 0.000213 s⁻¹ and the kon amounted to 1.98e+06 M⁻¹ s⁻¹.

Turning to B4, the Kd was 0.095 nM, the dissociation rate constant (koff) amounted to 0.000278 s⁻¹ and the kon worked out at 2.93e+06 M⁻¹ s⁻¹.

In the case of B5, the Kd stood at 0.109 nM, the koff came out at 0.000226 s⁻¹ and the kon amounted to 2.08e+06 M⁻¹ s⁻¹.

As for B6, the dissociation constant (Kd) was 0.0961 nM, the koff is 0.000213 s⁻¹ and the kon is 2.21e+06 M⁻¹ s⁻¹.

For the molecule B7, the dissociation constant Kd was determined as 0.0938 nM, the koff was found to be 0.000193 s⁻¹ and the kon was 2.06e+06 M⁻¹ s⁻¹.

A further test has as its target T1, Human Tau 2N4R, wild type, recombinant …. The description is as above. This is another data set of the same source. As to the method:
as §1
as §2, with “BIAcore™” for “surface plasmon resonance (BIAcore™)”, “(ka),” for “(kₐ),”, “model. Both 7G6-HCzu12-based mAbs had similar kₐ and kd values (Table 8). However, the kₐ of 7G6-HCzu11 was decreased, though the kd was unaffected. Therefore, human residues in the Vh3 framework impact binding to Tau.” for “model.”
With B8, the Kd turned out to be 0.073 nM, the koff was 0.000124 s⁻¹ and the association rate constant (kon) was 1.7e+06 M⁻¹ s⁻¹.

B9: the Kd turned out to be 0.121 nM, the koff came to 0.000152 s⁻¹ and the kon was 1.25e+06 M⁻¹ s⁻¹.

As to B10, the Kd came out at 0.0815 nM, the koff worked out at 0.000128 s⁻¹ and the on-rate constant (kon) turned out to be 1.57e+06 M⁻¹ s⁻¹.

B11: the Kd is 0.0959 nM, the koff stood at 0.000141 s⁻¹ and the kon is 1.47e+06 M⁻¹ s⁻¹.

As for B12, the Kd was determined as 0.205 nM, the koff was determined as 0.000175 s⁻¹ and the association rate constant (kon) amounted to 853000 M⁻¹ s⁻¹.

Take B13: the Kd was found to be 0.133 nM, the koff came out at 0.000194 s⁻¹ and the kon was found to be 1.46e+06 M⁻¹ s⁻¹.

As for B14, the equilibrium dissociation constant (Kd) came to 0.138 nM, the koff was determined as 0.000278 s⁻¹ and the kon came to 2.02e+06 M⁻¹ s⁻¹.

B15: the Kd was 0.0888 nM, the koff was determined as 0.000124 s⁻¹ and the kon is 1.4e+06 M⁻¹ s⁻¹.

Turning to B16, the equilibrium dissociation constant (Kd) came to 0.114 nM, the koff was 0.000174 s⁻¹ and the kon came to 1.53e+06 M⁻¹ s⁻¹.

Take B17: the Kd came to 0.099 nM, the koff amounted to 0.000148 s⁻¹ and the kon stood at 1.49e+06 M⁻¹ s⁻¹.

Consider B18, for which the Kd is 0.129 nM and 0.0875 nM; the koff is 0.000193 s⁻¹ and 0.000151 s⁻¹; the kon is 1.49e+06 M⁻¹ s⁻¹ and 1.72e+06 M⁻¹ s⁻¹.

Consider B19, for which the Kd was 0.0689 nM, the koff was found to be 0.000119 s⁻¹ and the kon worked out at 1.73e+06 M⁻¹ s⁻¹.

Take B20: the dissociation constant (Kd) amounted to 0.168 nM, the koff is 0.000239 s⁻¹ and the kon was 1.42e+06 M⁻¹ s⁻¹.

For the molecule B21, the Kd stood at 0.132 nM, the koff is 0.000181 s⁻¹ and the kon is 1.38e+06 M⁻¹ s⁻¹.

As for B22, the Kd is 0.119 nM, the koff was found to be 0.000136 s⁻¹ and the kon was 1.14e+06 M⁻¹ s⁻¹.

The Kd is the free concentration of one partner at which half of the binding sites on the other are occupied at equilibrium, for simple one-to-one binding. Usually koff stands for the first-order rate constant of dissociation. As a reminder, the kon is a measure of how fast the partners come together.
